B1: Hammerhead Ribozyme (parent)
chain: ACCGGAUGUGCUUUCCGGUCUGAUGAGUCCGUGAGGACGAAACAG

The variants in the data set derive from B1. Kind of data set: self-cleavage, relative activity (ratio to wild type); higher = more cleavage; co-transcriptional.
As to CCCGGAUGUGCUUUCCGGUCUGAUGAGUCCUUGAGGACGAAACAG [A1C G31U], the self-cleavage stood at 0.561.
The figure for ACCGGAUGUGCUUUCCGGUAUGAUGAGUCCGUCAGGACGAAACAG [C20A G33C] is 0.555; for AGCGGAUGUGCUUUCCGGUCUGAUGAGUCCGUGAGGAUGAAACAG [C2G C38U] it is 0.338.
With ACCGGAUGUGCUUUCCCGUCUGAGGAGUCCGUGAGGACGAAACAG [G17C U24G] the figure was 0.462.
With ACCGGAUGUGCUUUCCGGUCUGAUGAGUCCGUCGGGACGAAACAG [G33C A34G] the figure was 1.19.
Regarding ACCGGAUGUUCUUUCCGGUCUGAUGAGUCCGUGAGUACGAAACAG [G10U G36U], the self-cleavage was found to be 0.587.
The figure for ACCGGAUGUGCUUUCCGGUCUGAUGAGGCCGUGAGGACGAAACAU [U28G G45U] is 0.527; for ACCCGAUGUGCUUUCCGGUCGGAUGAGUCCGUGAGGACGAAACAG [G4C U21G] it is 0.239.
The figure for ACCGGAUGUUCUUUCCGGUCUGAUGAGUCCGUGAGGACGAAAUAG [G10U C43U] is 0.537.
The figure for ACCGGAUGUGCUUUCCGGUCUGAUGAGUCCGUGAAGACGAAAUAG [G35A C43U] is 0.401; for AACGGAUGUGCUUUCCGGUCUGUUGAGUCCGUGAGGACGAAACAG [C2A A23U] it is 0.33.
As to ACCGGAGGUGCUUUCCGGUCUAAUGAGUCCGUGAGGACGAAACAG [U7G G22A], the self-cleavage came out at 0.33.
Take ACCGGAUGUGCUUUCCGGUCUGAUGAGUCGGUUAGGACGAAACAG [C30G G33U]: the self-cleavage amounted to 1.02.
The figure for CCCGGAUGUGCUUUCCGGUCUGAUGAGUCCGUGCGGACGAAACAG [A1C A34C] is 0.477; for ACCGGAUGUCCUUUCCGGUCUGAUGAGUCCGUUAGGACGAAACAG [G10C G33U] it is 0.934.
On to ACUGGAUGUGCUUUCCGGUCUGAUGAGUCCAUGAGGACGAAACAG [C3U G31A], for which the self-cleavage was 1.06.
The figure for ACUGGAUGUGCUUUCCGGUCUGAUGAGUCCCUGAGGACGAAACAG [C3U G31C] is 0.974; for ACCGGAUGUGCUUUCCGGUAUGAUGAGUCCGUGAGGCCGAAACAG [C20A A37C] it is 0.417; for ACCGGAUGUACUUUCCGGUCUGAUGACUCCGUGAGGACGAAACAG [G10A G27C] it is 0.701.
With ACCGGAUGUGCUUUCCGGUCUGAUGAGUCCGUGAGGCCGAAAAAG [A37C C43A], the self-cleavage is 0.301.
Regarding ACCGGAUAUGCUUUCCGGUCUGAUGAUUCCGUGAGGACGAAACAG [G8A G27U], the self-cleavage was found to be 0.451.
With ACCGGAUGUGCUUUCCGGUCUGAUGAGUCUGUGAGGACGUAACAG [C30U A40U] the figure was 0.345; with ACCGGAAGUGCUUUUCGGUCUGAUGAGUCCGUGAGGACGAAACAG [U7A C15U], 1.04; with ACCGGAUGUGCUUUCCGGACUGAUGAGUCCGUGAGGGCGAAACAG [U19A A37G], 0.326.
In the case of ACCGGAUGUGCUUGCCGGUCUGAUGACUCCGUGAGGACGAAACAG [U14G G27C], the self-cleavage was determined as 0.618.
For ACCGGAUGUGCUUUCCGGUCUGAGGAGUCCGUGACGACGAAACAG [U24G G35C], the self-cleavage is 0.839.
ACCGGAGGUGUUUUCCGGUCUGAUGAGUCCGUGAGGACGAAACAG [U7G C11U]: the self-cleavage was 1.12.
On to ACCGGAUGUGCUUUCCGGUCUGAUGAGUCCGGGAGGACGUAACAG [U32G A40U], for which the self-cleavage was 0.39.
ACCGGAUCUGCUUUCCGGUCCGAUGAGUCCGUGAGGACGAAACAG [G8C U21C]: the self-cleavage worked out at 0.611.
The figure for ACGGGAUGUGCUUUCCGGCCUGAUGAGUCCGUGAGGACGAAACAG [C3G U19C] is 0.31; for ACCGGACGUGCUUUCCGGUCUGAUGAGUCCGUGAGUACGAAACAG [U7C G36U] it is 0.422; for ACCGGAUGUGCUUUCAGGUCUGAUGAGUCCCUGAGGACGAAACAG [C16A G31C] it is 1.04.
Regarding ACCGGAUGUGCUUUCCGGUCUGAUGAGUCCGUGCUGACGAAACAG [A34C G35U], the self-cleavage came to 0.58.
With ACCGGAUGUGCUUUCCGGUCUGAUGAGAGCGUGAGGACGAAACAG [U28A C29G] the figure was 0.445; with ACCGGAUGUGCUUUCCGGUCUAAUGAGUCCGUGAGGAUGAAACAG [G22A C38U], 0.328.
As to ACCGGAUGUGCAUUCCGGUCUGAUGAGUCCGUGAGGACGAAACAC [U12A G45C], the self-cleavage came to 0.602.
With ACCGGAUGUUGUUUCCGGUCUGAUGAGUCCGUGAGGACGAAACAG [G10U C11G] the figure was 1.2; with ACCGGAUGUGCUUUCCGGUCUGAUGUGUCCGUGAGGACGAAACAC [A26U G45C], 0.362.
With ACCGGAUGUGCUUUCCGGGCUGUUGAGUCCGUGAGGACGAAACAG [U19G A23U] the figure was 0.23; with ACCAGAUGUGCUUUCCGGUCUGAUGAGUCCGUGAGGACGAAACGG [G4A A44G], 0.84.
With ACGGGAUGUGCUUUCCGGUUUGAUGAGUCCGUGAGGACGAAACAG [C3G C20U] the figure was 0.26; with ACCGGAUCUGCUUUCCGGUCUGAUGAGUCCGUGAGGACGAAAAAG [G8C C43A], 0.343; with ACCGGAUGUGCUUUCGGGUCUGAUGAGUCCGUGAGGACUAAACAG [C16G G39U], 0.345.
Take AGCGGAUGCGCUUUCCGGUCUGAUGAGUCCGUGAGGACGAAACAG [C2G U9C]: the self-cleavage stood at 0.357.
With ACCGGAUGUGCUUUCCGGUUUGAUGAGUCCGUAAGGACGAAACAG [C20U G33A], the self-cleavage was found to be 0.867.
Take ACCGGAUGUGCUCUCCGGUGUGAUGAGUCCGUGAGGACGAAACAG [U13C C20G]: the self-cleavage amounted to 0.293.
With ACCGGGUGUGCUUUCCGGUCUGAUGAGUUCGUGAGGACGAAACAG [A6G C29U] the figure was 0.89; with ACCGGAUGUGCUUUCCGGUCUGACGAGUCCGUGAGGACGUAACAG [U24C A40U], 0.281.
With ACCGGUUGUGCUUUCCGGUCUGAUGAGUCCGUGAGGACGAAUCAG [A6U A42U], the self-cleavage was 0.241.
As for ACCGGAUGUGCUUUCCGGACUGAUGAGUCCCUGAGGACGAAACAG [U19A G31C], the self-cleavage was determined as 0.384.
The figure for ACCGGUUGUGCUUUCCGGUCUGAUCAGUCCGUGAGGACGAAACAG [A6U G25C] is 0.259; for UCCGGAUGUGCUUUCCGGUCUGAUCAGUCCGUGAGGACGAAACAG [A1U G25C] it is 0.357.
For the variant ACCGGAUGUGCUUUCCGGUGUGAUGAGUACGUGAGGACGAAACAG [C20G C29A], the self-cleavage stood at 0.312.
With ACCGGAUGUGCUUUCCGGUGAGAUGAGUCCGUGAGGACGAAACAG [C20G U21A] the figure was 0.286; with ACCAGAUGUGCUUUCCGGUCUGUUGAGUCCGUGAGGACGAAACAG [G4A A23U], 0.356; with ACCGGAUGUGCUUACCGGUCUGAUGAGUCCGUGAGGACGGAACAG [U14A A40G], 0.296.
As for ACCGGAUGUGCUUUUCGGUCUGAUGAGUCCGUGAGGAUGAAACAG [C15U C38U], the self-cleavage was found to be 0.82.

The record behind these values is the RNAGym collection of RNA variant scans (doi:10.7554/elife.80360).
